From patent publication US20030219899A1

Assays:
Experiment in all cases: cell-based or functional assay
[1] = target: human coxsackie-adenovirus receptor (hCAR) (human) (UniProt P78310)
Ad3 receptor = target: Ad3 receptor
[2] = target: hCAR-tailless, truncation mutant of human CAR lacking the cytoplasmic domain (human) (UniProt P78310)

Which AdMSluc1 luciferase activity (normalized to Ad5/3luc1) in U118-hCAR cells against parental U118 cells [1] does the source give for “mosaic adenovirus AdMSluc1 displaying both the Ad5 wild-type fiber and the Ad5/3 chimeric fiber on the same virion (from UniProt P11818 1-581; P11818 1-399; P04501 132-319)” here?
Its AdMSluc1 luciferase activity (normalized to Ad5/3luc1) in U118-hCAR cells against parental U118 cells is 6 fold.

What about the luciferase gene transfer of AdMSluc1 to C33A cells in the presence of purified Ad5 knob; lowest knob concentration with significant block [1] of the same substance?
The luciferase gene transfer of AdMSluc1 to C33A cells in the presence of purified Ad5 knob; lowest knob concentration with significant block was 0.1 µg/mL.

And the luciferase gene transfer of AdMSluc1 to C33A cells in the presence of purified Ad3 knob (Ad3 receptor)?
The luciferase gene transfer of AdMSluc1 to C33A cells in the presence of purified Ad3 knob was 100 µg/mL.

What about the AdMSluc1 luciferase activity (normalized to Ad5/3luc1) in U118-hCAR-tailless cells against parental U118 cells [2] of the same substance?
Its AdMSluc1 luciferase activity (normalized to Ad5/3luc1) in U118-hCAR-tailless cells against parental U118 cells is 7.5 fold.

Which results are given for “Ad5 wild-type fiber, as displayed on Ad5luc1 (from UniProt P11818 1-581)”?
Ad5luc1 luciferase activity (normalized to Ad5/3luc1) in U118-hCAR cells against parental U118 cells [1]: 11 fold; Ad5luc1 luciferase activity (normalized to Ad5/3luc1) in U118-hCAR-tailless cells against parental U118 cells [2]: 16 fold

With “recombinant Ad3 fiber knob protein with N-terminal 6xHis tag expressed in E. coli (from UniProt P04501 119-319)” as the substance, how does the luciferase activity of Ad5/3luc1 on HeLa cells with 100 µg/ml Ad3 knob, against that without knob protein (% of activity without knob protein) (Ad3 receptor) read?
Its luciferase activity of Ad5/3luc1 on HeLa cells with 100 µg/ml Ad3 knob, against that without knob protein (% of activity without knob protein) is under 5.

Which luciferase activity of Ad5luc1 on HeLa cells with 100 µg/ml Ad5 knob, against that without knob protein (% of activity without knob protein) [1] does the source give for “recombinant Ad5 fiber knob protein with N-terminal 6xHis tag expressed in E. coli (from UniProt P11818 387-581)” here?
The luciferase activity of Ad5luc1 on HeLa cells with 100 µg/ml Ad5 knob, against that without knob protein (% of activity without knob protein) was under 5.
